Reference: paper PMC10175742

Molecular target: N-cadherin (UniProt P19022)
Assay: confocal 3D colocalisation
Settings: reference: nonfailing control (NFC) heart tissue; sites S637,S647,T649,S650

other: Pearson's correlation coefficient: stronger; reference 0.55 ± 0.04
Substance: αT-catenin (CTNNA3) (from UniProt Q9UI47) DCM heart tissue
